{"source": "paper PMC8998336", "about": "“Structural and Biophysical Insights into SPINK1 Bound to Human Cationic Trypsin” (International Journal of Molecular Sciences, 2022)", "binders": {"B1": {"name": "serine protease inhibitor Kazal-type 1 (SPINK1) WT (natural protein, human, UniProt P00995 24-79, looked up)", "chain": "DSLGREAKCYNELNGCTKIYDPVCGTDGNTYPNECVLCFENRKRQTSILIQKSGPC", "notes": "N-terminal truncation removes the signal peptide; pET47b construct with His6-tag and HRV3C cleavage site; source: SHuffle T7 Express E. coli, purified (HisTrap HP, HRV3C digestion, His6-tag removed on the same HisTrap column); not shown: His6, N-terminal, cleaved"}, "B2": {"name": "serine protease inhibitor Kazal-type 1 (SPINK1) p.N34S (natural protein, human, UniProt P00995 24-79, looked up)", "chain": "DSLGREAKCYSELNGCTKIYDPVCGTDGNTYPNECVLCFENRKRQTSILIQKSGPC", "notes": "made by site directed mutagenesis; pET47b construct with His6-tag and HRV3C cleavage site; also called SPINK1 N34S; p.N34S mutant; source: SHuffle T7 Express E. coli, purified (HisTrap HP, HRV3C digestion, His6-tag removed on the same HisTrap column); not shown: His6, N-terminal, cleaved"}}, "details_in_all_cases": "both partners purified", "key": {"[1]": {"target": "T1, human cationic trypsin (TRY1) p.S200A (human, UniProt P07477 24-247, p.S200A)", "T1 construct": "human cationic trypsin (TRY1); cloned as amino acids 16-247 (signal peptide removed); His6-tag and propeptide removed after enterokinase digestion; the final structure contains amino acids 24-247; catalytic serine replaced by alanine; also called TRY1 S200A; not shown: His6, N-terminal, cleaved", "assay": "SPR; BIAcore T200, TRY1 p.S200A amine-coupled to a CM5 chip; SPINK1 3.125-50 nM, single-cycle kinetics, 37 °C, 50 µL/min; 20 mM Hepes pH 7.4, 150 mM NaCl, 2 mM CaCl2, 0.05% Tween20; 1:1 Langmuir model"}, "[2]": {"target": "T2, human cationic trypsin (TRY1) WT (human, UniProt P07477 24-247)", "T2 construct": "human cationic trypsin (TRY1); cloned as amino acids 16-247 (signal peptide removed); His6-tag and propeptide removed after enterokinase digestion; not shown: His6, N-terminal, cleaved", "assay": "enzyme inhibition assay (Morrison tight-binding fit); 100 pM TRY1, 1 mM L-BAPA, SPINK1 15.625-2000 pM; 20 mM Hepes pH 7.4, 150 mM NaCl, 2 mM CaCl2, 0.05% Tween20; 37 °C; initial rates after a 5 h lag phase; Morrison's quadratic equation"}, "[3]": {"target": "T1, human cationic trypsin (TRY1) p.S200A", "assay": "ITC; MicroCal PEAQ-ITC, 37 °C; TRY1 p.S200A in the cell at 5-10 µM, SPINK1 in the syringe at 50-100 µM; 20 mM Hepes pH 7.4, 150 mM NaCl, 2 mM CaCl2; one-site binding model"}}, "data": [{"binder": "B1", "values": [{"measurement": "half-life t1/2 of the complex", "setting": "[1]", "value": "~1", "unit": "h"}, {"measurement": "kon", "setting": "[1]", "value": 250000, "unit": "M⁻¹ s⁻¹"}, {"measurement": "Ki", "setting": "[2]", "value": "< 0.05", "unit": "nM"}, {"measurement": "dH", "setting": "[3]", "value": "~-10", "unit": "kcal/mol"}]}, {"binder": "B2", "values": [{"measurement": "half-life t1/2 of the complex", "setting": "[1]", "value": "~1", "unit": "h"}, {"measurement": "kon", "setting": "[1]", "value": 250000, "unit": "M⁻¹ s⁻¹"}, {"measurement": "Ki", "setting": "[2]", "value": "< 0.05", "unit": "nM"}, {"measurement": "dH", "setting": "[3]", "value": "~-10", "unit": "kcal/mol"}]}]}
